Reference: paper PMC8319368 (The Journal of Biological Chemistry, 2021)

Assays:
native gel or EMSA = molecular target: the molecule itself; test: native gel or EMSA
[1] = molecular target: T1, Saccharomyces cerevisiae Pol32, PCNA-binding subunit of DNA polymerase delta (ScPol32) (Saccharomyces cerevisiae, UniProt P47110 1-350); test: ITC
T1 sequence: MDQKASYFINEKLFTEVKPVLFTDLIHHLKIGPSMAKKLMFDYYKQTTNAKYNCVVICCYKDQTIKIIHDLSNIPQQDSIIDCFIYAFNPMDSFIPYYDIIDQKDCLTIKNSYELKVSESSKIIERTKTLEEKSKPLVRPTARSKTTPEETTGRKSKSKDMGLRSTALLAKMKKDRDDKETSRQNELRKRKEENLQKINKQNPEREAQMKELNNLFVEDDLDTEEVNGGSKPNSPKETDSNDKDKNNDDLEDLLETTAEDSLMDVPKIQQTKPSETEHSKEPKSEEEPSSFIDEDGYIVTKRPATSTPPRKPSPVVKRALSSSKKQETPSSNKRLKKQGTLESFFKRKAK

[2] = molecular target: T2, Saccharomyces cerevisiae Pol32, PCNA-binding subunit of DNA polymerase delta (ScPol32) (Saccharomyces cerevisiae), P47110; test: ITC; details: remark: other sources report otherwise
T2 chain: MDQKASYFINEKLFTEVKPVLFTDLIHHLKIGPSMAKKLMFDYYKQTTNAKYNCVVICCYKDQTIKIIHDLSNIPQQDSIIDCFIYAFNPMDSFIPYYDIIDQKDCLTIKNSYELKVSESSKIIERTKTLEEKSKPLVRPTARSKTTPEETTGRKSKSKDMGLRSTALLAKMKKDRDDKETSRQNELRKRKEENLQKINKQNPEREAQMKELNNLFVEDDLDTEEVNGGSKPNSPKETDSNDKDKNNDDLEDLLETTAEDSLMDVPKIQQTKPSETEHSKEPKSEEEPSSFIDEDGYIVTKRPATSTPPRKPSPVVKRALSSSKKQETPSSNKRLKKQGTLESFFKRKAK

Binder | stoichiometry N (native gel or EMSA) | Kd [1] [µM] | dH [1] [kcal/mol] | stoichiometry N [1] | Kd [2] [µM] | dH [2] [kcal/mol] | stoichiometry N [2]
Neurospora crassa proliferating cell nuclear antigen (NcPCNA), GST tag cleaved (natural protein) MLEARLEQASILKKVVDAIKDLVQDCNFDCNDSGIALQAMDNSHVALVSMMLKTETFSPFRCDRNIALGVNLTSLTKVLRAAQNEDILTLKAEDAPDVLNLVFESSENDRISEYDLKLMDIDQEHLGIPDTEYAATISMPSSEFKRITTDLMAMSESVNIEASKDGVKFSCQGDIGNGSITLRQHTNVDKPSENIEIELSEPVSLTFSLKYLVNFCKASALSSTVKICLSNEVPLLVEYNISASSYLRFYLAPKIGDEE | 3 | 4.28 ± 0.325 | -1.24 ± 0.0554 | 1.06 ± 0.035 |  |  | 
Saccharomyces cerevisiae PCNA (ScPCNA), wild type, P15873 1-258 (natural protein) MLEAKFEEASLFKRIIDGFKDCVQLVNFQCKEDGIIAQAVDDSRVLLVSLEIGVEAFQEYRCDHPVTLGMDLTSLSKILRCGNNTDTLTLIADNTPDSIILLFEDTKKDRIAEYSLKLMDIDADFLKIEELQYDSTLSLPSSEFSKIVRDLSQLSDSINIMITKETIKFVADGDIGSGSVIIKPFVDMEHPETSIKLEMDQPVDLTFGAKYLLDIIKGSSLSDRVGIRLSSEAPALFQFDLKSGFLQFFLAPKFNDEE |  |  |  |  | 2.75 | -1.48 | 1.05
